The record followed here is the Immune Epitope Database (IEDB).

Common to all, as to test: IEDB peptide-MHC binding, purified MHC/competitive/radioactivity; ≥ and ≤ were set here for values at or beyond the usual limits of such assays
Test [1] concerns the target HLA-A*02:02.
The target of test [2] is HLA-A*02:01.
For test [3], the target named is HLA-A*02:06.
Test [4] concerns the target HLA-A*02:03.
Test [5] addresses HLA-A*68:02.
Where [6] appears, read: source organism: Vaccinia virus WR.
The mark [7] stands for this setting: source organism: Hepacivirus hominis.

Turning to NLTQLFKYV, the half-maximal inhibitory concentration (IC50) in test [1] (setting [6]) is 0.32 µM; in test [2] (setting [6]), 1.18 µM; in test [3] (setting [6]), 0.657 µM; in test [4] (setting [6]), 0.238 µM; in test [5] (setting [6]), 4.34 µM.

For NASKFVYVSV, the IC50 in test [1] (setting [6]) was 4.55 µM; in test [2] (setting [6]) it was 1.01 µM; in test [3] (setting [6]), 0.823 µM; in test [4] (setting [6]) it was 0.0086 µM; in test [5] (setting [6]) it was 0.101 µM.

For KIILFLTLI, the 50% inhibitory concentration (IC50) is 0.068 µM in test [1] (source organism: SARS-CoV1); 0.141 µM in test [2] (source organism: SARS-CoV1); 0.024 µM in test [3] (source organism: SARS-CoV1); 0.0049 µM in test [4] (source organism: SARS-CoV1); 0.378 µM in test [5] (source organism: SARS-CoV1).

ATICLKNEGV: the half-inhibitory concentration (IC50) in test [1] (setting [6]) was found to be 0.436 µM; in test [2] (setting [6]), 0.239 µM; in test [3] (setting [6]), 0.042 µM; in test [4] (setting [6]) it was 0.071 µM; in test [5] (setting [6]), 0.087 µM.

Consider NITRLEVIGL, for which the IC50 stood at 0.907 µM in test [1] (setting [6]); 0.424 µM in test [2] (setting [6]); 0.197 µM in test [3] (setting [6]); 0.095 µM in test [4] (setting [6]); 0.301 µM in test [5] (setting [6]).

Turning to QMAGVEVRYI, the half-maximal inhibitory concentration (IC50) in test [1] (setting [6]) stood at 0.00021 µM; in test [2] (setting [6]), 0.0064 µM; in test [3] (setting [6]), 0.045 µM; in test [4] (setting [6]), 0.00014 µM; in test [5] (setting [6]), 0.147 µM.

In the case of AITLVVISVI, the half-inhibitory concentration (IC50) in test [1] (setting [6]) turned out to be 0.406 µM; in test [2] (setting [6]), 0.494 µM; in test [3] (setting [6]), 2 µM; in test [4] (setting [6]), 0.786 µM; in test [5] (setting [6]) it was 2.38 µM.

In the case of IASILSLETV, the IC50 turned out to be 0.234 µM in test [1] (setting [6]); 0.424 µM in test [2] (setting [6]); 0.047 µM in test [3] (setting [6]); 0.093 µM in test [4] (setting [6]); 0.2 µM in test [5] (setting [6]).

Consider CTMERTNDL, for which the IC50 worked out at 0.036 µM in test [1] (setting [6]); 0.345 µM in test [2] (setting [6]); 0.096 µM in test [3] (setting [6]); 0.025 µM in test [4] (setting [6]); 0.103 µM in test [5] (setting [6]).

On to FLFWFLKSGA, for which the IC50 in test [1] (setting [6]) turned out to be 0.0011 µM; in test [2] (setting [6]) it was 0.0019 µM; in test [3] (setting [6]), 0.023 µM; in test [4] (setting [6]), 0.00058 µM; in test [5] (setting [6]), 0.038 µM.

Regarding LVFLWLLWPV, the IC50 in test [1] (source organism: SARS-CoV1) stood at 0.00093 µM; in test [2] (source organism: SARS-CoV1), 0.0049 µM; in test [3] (source organism: SARS-CoV1), 0.00056 µM; in test [4] (source organism: SARS-CoV1), 0.0019 µM; in test [5] (source organism: SARS-CoV1), 0.018 µM.

For the sequence FIISTLNKI, the half-inhibitory concentration (IC50) in test [1] (setting [6]) was found to be 0.0016 µM; in test [2] (setting [6]), 0.0061 µM; in test [3] (setting [6]), 0.0058 µM; in test [4] (setting [6]) it was 0.00042 µM; in test [5] (setting [6]), 1.5 µM.

For the sequence MQVFFGYFA, the IC50 in test [1] (source organism: SARS-CoV1) was determined as 0.01 µM; in test [2] (source organism: SARS-CoV1), 0.01 µM; in test [3] (source organism: SARS-CoV1) it was 0.001 µM; in test [4] (source organism: SARS-CoV1) it was 0.193 µM; in test [5] (source organism: SARS-CoV1), 0.012 µM.

For ILYYGANGST, the 50% inhibitory concentration (IC50) in test [1] (setting [6]) was determined as 0.341 µM; in test [2] (setting [6]), 0.29 µM; in test [3] (setting [6]) it was 1.83 µM; in test [4] (setting [6]), 0.039 µM; in test [5] (setting [6]), 3.83 µM.

Take NLWNTFTRL: the IC50 in test [1] (source organism: SARS-CoV1) came to 0.024 µM; in test [2] (source organism: SARS-CoV1), 0.0069 µM; in test [3] (source organism: SARS-CoV1), 0.166 µM; in test [4] (source organism: SARS-CoV1) it was 0.194 µM; in test [5] (source organism: SARS-CoV1), 0.391 µM.

Turning to EVERLMELPV, the IC50 in test [1] (setting [6]) stood at 2.46 µM; in test [2] (setting [6]), 1.98 µM; in test [3] (setting [6]), 3.63 µM; in test [4] (setting [6]) it was 1.43 µM; in test [5] (setting [6]), 1.22 µM.

Consider YVILKDPRI, for which the IC50 in test [1] (setting [6]) was 1.55 µM; in test [2] (setting [6]), 0.778 µM; in test [3] (setting [6]) it was 0.012 µM; in test [4] (setting [6]), 0.203 µM; in test [5] (setting [6]) it was 0.847 µM.

As to FVDGVPFVV, the IC50 in test [1] (source organism: SARS-CoV1) was 0.0096 µM; in test [2] (source organism: SARS-CoV1) it was 0.00097 µM; in test [3] (source organism: SARS-CoV1), 0.00091 µM; in test [4] (source organism: SARS-CoV1), 0.086 µM; in test [5] (source organism: SARS-CoV1), 0.168 µM.

With FLAFLLFLV, the 50% inhibitory concentration (IC50) in test [1] (source organism: SARS-CoV1) is 0.0018 µM; in test [2] (source organism: SARS-CoV1), 0.0083 µM; in test [3] (source organism: SARS-CoV1), 0.009 µM; in test [4] (source organism: SARS-CoV1), 0.058 µM; in test [5] (source organism: SARS-CoV1), 0.066 µM.

In the case of FTILEYLYI, the IC50 in test [1] (setting [6]) was determined as 1.56 µM; in test [2] (setting [6]) it was 0.068 µM; in test [3] (setting [6]) it was 0.267 µM; in test [4] (setting [6]), 0.169 µM; in test [5] (setting [6]) it was 0.022 µM.

Consider HVLLPFYETL, for which the concentration for half-maximal inhibition (IC50) in test [1] (setting [6]) is 0.029 µM; in test [2] (setting [6]) it was 0.017 µM; in test [3] (setting [6]), 0.115 µM; in test [4] (setting [6]) it was 0.213 µM; in test [5] (setting [6]), 2.27 µM.

Consider NMINKLYGYA, for which the half-inhibitory concentration (IC50) in test [1] (setting [6]) is 0.0016 µM; in test [2] (setting [6]), 0.088 µM; in test [3] (setting [6]) it was 0.137 µM; in test [4] (setting [6]) it was 0.00044 µM; in test [5] (setting [6]), 0.292 µM.

As for LIVMLLFAGV, the half-inhibitory concentration (IC50) was 3.39 µM in test [1] (setting [7]); 1.47 µM in test [2] (setting [7]); 0.169 µM in test [3] (setting [7]); 0.358 µM in test [4] (setting [7]); 4.29 µM in test [5] (setting [7]).

On to NIFMTLVPV, for which the IC50 stood at 0.086 µM in test [1] (setting [6]); 0.011 µM in test [2] (setting [6]); 0.227 µM in test [3] (setting [6]); 0.0064 µM in test [4] (setting [6]); 0.0026 µM in test [5] (setting [6]).

For orientation: IC50 means the concentration that inhibits the measured activity by half.
